Results reported in US5770410A, “Chiral synthesis with modified enzymes” (Genzyme Corporation, priority 1992, dated 1998).
Residue numbers refer to the chain shown, from its start. In names and notes the source's numbering stands.

B1: Bacillus stearothermophilus lactate dehydrogenase, wild type, SEQ ID NO: 3 (Geobacillus stearothermophilus) (protein)
chain: MKNNGGARVVVIGAGFVGASYVFALMNQGIADEIVLIDANESKAIGDAMDFNHGKVFAPKPVDIWHGDYDDCRDADLVVICAGANQKPGETRLDLVDKNIAIFRSIVESVMASGFQGLFLVATNPVDILTYATWKFSGLPHERVIGSGTILDTARFRFLLGEYFSVAPQNVHAYIIGEHGDTELPVWSQAYIGVMPIRKLVESKGEEAQKDLERIFVNVRDAAYQIIEKKGATYYGIAMGLARVTRAILHNENAILTVSAYLDGLYGERDVYIGVPAVINRNGIREVIEIELNDDEKNRFHHSAATLKSVLARAFTR
notes: made in house; host or cells: E. coli
B2: Bacillus stearothermophilus lactate dehydrogenase mutant 235/6GG (Ala235Gly, Ala236Gly) (Geobacillus stearothermophilus; A222G/A223G) (protein)
chain: B1 chain with A222G, A223G
notes: as for B1
B3: Bacillus stearothermophilus lactate dehydrogenase mutant WTrs (restriction-site construct pLDHrs, Cys97Thr, Ala235Gly, Ala236Gly; loop SEQ ID No 7) … (protein)
chain: B1 chain with C81T, A222G, A223G
notes: made in house; host or cells: E. coli TG2

Experiments:
Test in all cases: Steady-state kinetics, NADH-dependent reduction of 2-oxo acids (A340)
[1] = substrate: O=C(O)C(=O)CCc1ccccc1; format: biochemical, Bacillus stearothermophilus; details: other: +FBP (5 mM), 25° C., pH 6
Experimental: (§1) Overnight cultures (11) were centrifuged and the packed cells were resuspended in 50 mM triethanolamine, pH 6.0. The cells were sonicated and the debris was removed by centrifugation. The protein in the supernatant was precipitated by the addition of 65% ammonium sulphate. The precipitate was spun down and resuspended in 50 mM triethanolamine, pH 6.0 and dialysed against the same buffer. After dialysis, NADH and FBP were added to the protein to final concentrations of 5 mM and 10 mM before loading onto an oxamate Sepharose column which had been pre-equilibrated with 50 mM triethanoloamine, pH 6.0, 3 mM NADH and 5 mM FBP. After washing off unbound protein with column buffer mutant LDH was eluted with 50 mM triethanolamine, pH 9.0, 0.3 M NaCl. The elutant was precipitated with 65% ammonium sulphate and then resuspended in and dialysed against 50 mM triethanolamine, pH 7.5. The protein was then loaded onto a Q-Sepharose Fast Flow column and eluted with a salt gradient. LDH eluted at a concentration of 0.25M NaCl. For the double glycine mutant enzyme, the first chromatography procedure with oxamate Sepharose was replaced by chromatography on Blue Sepharose -F3GA, otherwise the procedure was essentially the same. All proteins were judged to be greater than 98% pure from the intensity of Coomassie blue staining on an SDS Phast gel (Pharmacia). The yield of protein was usually 0.2 g/l of original broth.
(§2) Steady-state measurements were made by following the reduction in absorbance at 340 nm in the NADH/NAD^+ conversion. All assays were at 25° C. in the buffer Bis-Tris, pH 6, (20 mM), containing KC1 (50 mM) and when used fructose-1,6-bisphosphate at 5 mM. Protein concentration was determined from the absorbance at 280 nm using the value of 0.91 for 1 mg/ml protein in 1 cm path and an Mr of 33,000.
(§3) The specific substrates used in the evaluations are shown in the left column of Table 4. In Table 4, "235/6GG" denotes the mutant enzyme formed by substituting GlyGly for AlaAla at the 235-236 positions of the enzyme (Wilks et al., Biochemistry 1990, 29, 8587-8591), and "WTrs" denotes a mutant derived from the wild-type strain as shown in FIG. 1 of Wilks et al., Biochemistry 1992, 31, 7802-7806.

[2] = substrate: O=C(O)C(=O)Cc1ccccc1; format: biochemical, Bacillus stearothermophilus; details: other: +FBP (5 mM), 25° C., pH 6
Experimental: as §1, §2, §3

[3] = substrate: CC(=O)C(=O)O; format: biochemical, Bacillus stearothermophilus; details: other: -FBP, 25° C., pH 6
Experimental: as §1, §2, §3

[4] = substrate: CCCCC(=O)C(=O)O; format: biochemical; details: other: -FBP, 25° C., pH 6
From the text: (§4) Mutants were identified by making mini-preps and restricting with SacII and XbaI. Mutant mini-preps were restricted with EcoRI and XhoI and the small fragment was subcloned into PKK223-3 containing Ala235Gly, Ala236Gly mutant LDH from which the small EcoRI/XhoI fragment had been removed (Wilks et al. Biochemistry, 1990, 29, 8587). The resulting plasmid (pLDHrs) was transformed into competent E. coli TG2 cells.
as §1, §2, §3

[5] = substrate: CC(C)CC(=O)C(=O)O; format: biochemical; details: other: -FBP, 25° C., pH 6
From the text: as §4, §1, §2, §3

[6] = substrate: O=C(O)C(=O)CCc1ccccc1; format: biochemical; details: 25° C., pH 6
From the text: as §4, §1, §2, §3

[7] = substrate: O=C(O)C(=O)Cc1ccccc1; format: biochemical; details: 25° C., pH 6
From the text: as §4, §1, §2, §3

[8] = substrate: CC(=O)C(=O)O; format: biochemical; details: other: -FBP, 25° C., pH 6
From the text: as §4, §1, §2, §3

Row | Protein | Km [1] [mM] | kcat [1] [s⁻¹] | kcat/Km [1] [M⁻¹ s⁻¹] | Km [2] [mM] | kcat [2] [s⁻¹] | kcat/Km [2] [M⁻¹ s⁻¹] | Km [3] [mM] | kcat [3] [s⁻¹] | kcat/Km [3] [M⁻¹ s⁻¹] | Km [4] [mM] | Km [5] [mM] | Km ([6]; other: +FBP (5 mM)) [mM] | kcat ([6]; other: +FBP (5 mM)) [s⁻¹] | kcat/Km ([6]; other: +FBP (5 mM)) [M⁻¹ s⁻¹] | Km ([6]; other: -FBP) [mM] | Km ([7]; other: +FBP (5 mM)) [mM] | kcat ([7]; other: +FBP (5 mM)) [s⁻¹] | kcat/Km ([7]; other: +FBP (5 mM)) [M⁻¹ s⁻¹] | Km ([7]; other: -FBP) [mM] | Km [8] [mM]
1 | B1 | 0.6 | 6 | 10000 | 1.8 | 32.7 | 18000 | 2 | 250 | 50000 |  |  |  |  |  |  |  |  |  |  | 
2 | B2 | 13 | 7 | 538 | 4.5 | 53.4 | 12000 |  |  |  |  |  |  |  |  |  |  |  |  |  | 
3 | B3 |  |  |  |  |  |  |  |  |  | 30 | 28 | 4 | 6 | 1500 | 12 | 6 | 58 | 9600 | 21 | 100
